The DeepSol protein solubility set

Experiment: soluble on expression in E. coli; label from the status in PepcDB or PDB records

| Sequence | soluble on expression in E. coli |
| --- | --- |
| TPQYESTTKMYVLSKQDNNTLTQQDMQTSLSLTKDYAELIKSRTVTEGVIAQLNLDLTHEELLKKMTVDSATDTRILSITVTDADPYEACKIANAIRDVAANHIKNVMDIDAVNVVETANIPDQQSSPSISKN | not soluble |
| GSMALPKDAIPSLSECQCGICMEILVEPVTLPCNHTLCKPCFQSTVEKASLCCPFCRRRVSSWTRYHTRRNSLVNVELWTIIQKHYPRECKLRASGQESEEVADDYQPVRLLSKP | soluble |
| MWTATACSIDSSPSMWNCAEVMDSTRSELLQSTPEAEDGNIEYKLKLVNPSQYRFEHLVTQMKWRLQEGRGEAVYQIGVEDNGLLVGLAEEEMRASLKTLHRMAEKVGADITVLREREVDYDSDVPRKITEVLVRKVPDNQQFLDLRVAVLGNVDSGKSTLLGVLTQGELDNGRGRARLNLFRHLHEIQSGRTSSISFEILGFNSKGEVVNYSDSRTAEEICESSSKMITFIDLAGHHKYLHTTIFGLTSYCPDCALLLVSANTGIAGTTREHLGLALALKVPFFIVVSKVDLCAKTTVERTVRQLERVLKQPGCHKVPMLVTSEDDAVTAAQQFAQSPNVTPIFTLSSVSGESLDLLKVFLNILPPLTNSKEQEELMQQLTEFQVDEIYTVPEVGTVVGGTLSSGICREGDQLVVGPTDDGCFLELRVCSIQRNRSACRVLRAGQAATLALGDFDRALLRKGMVMVSPEMNPTICSVFEAEIVLLFHATTFRRGFQVTVHVGNVRQTAVVEKIHAKDKLRTGEKAVVRFRFLKHPEYLKVGAKLLFREGVTKGIGHVTDVQAITAGEAQATMGF | soluble |
| MGSDKIHHHHHHAKSYSKAVTKIAGTKNYPIYHKVTKNGPSGKFTSTSYFKYGQIQSKQYVSTKKGNFWNIIVDGRPVGWVSENCFARNTISVANDVSLVKNSDYSFNTRDAINYATDSHGTAIDPDRVQVSQASVSTKATTVNYSYGKAKASVNIDVRSGNDEMGEANVTPKSGFKTTTTWNGGSKGSSRNWNAAHHYTSETTSNTFKSNGLTLRTRLFQPRFVSLGYGQSADKMGQVGVIPEGMTVNGGIFATSMFTSSSDQHGHIVSYNLNTIKSKYAVQNLTTMNWSTFKSYANNIKVSPYIKLGHGQSLGSSSDYIYVMANDNNYNNGPRSEEIIQIRKSDMKINKIWTFRIAENRYIHNATFVGDNTMYALFHNGGHNHYEYWKLTRNGDSWKATEVGATAGSFVSNSPVQGFAYGNGSFFIGFNDNIFKVSENGAAQKHYRFNTGREIEGLSANGSDLYVQFAQRAELTQGRF | not soluble |
| RTRKGIELIPLDQVIYFIADHKYVTLRHEGGEVLLDEPLKALEDEFGDRFVRIHRNALVARKRIESMKRTPVGHFELFLRGLNGDALIVSRRHVAGVRKMMQQL | not soluble |
| MAQLYYKYGTMNSGKTIEILKVAHNYEEQGKPVVIMTSALDTRDGFGIVSSRIGMRREAIPISNDMDIFTFIAQLEEKPYCVLIDESQFLSKQNVYDLARVVDELNVPVMAFGLKNDFQNNLFEGSKHLLLLADKIDEIKTICQYCSKKATMVLRTENGKPVYEGDQIQIGGNETYIPVCRKHYFNPDI | not soluble |
| SLENVMRSLGFGFACKKGLKPDSPNQDDFAALCCSAFRLFGVFDGHGPSGHDVSGYVHRMLFALLLTDESLNRNPQLALRNAFVAPSKLRKSALLQVVCLPLFRPQPFTNVGGYDEAKAVRFVLFFSGGELKRLECDIPYRVFLKGRLYPGLAMSRALGDAIASHAGVSCEPDLSTVELDRSCLFVIIASDGVWEFISNQEAVNIVNEAMGSERKVRAKAAAERLALEAFKRWVEEEGNVVDDVFPVSPGGSHALPLLTTDPFIAKMKFLTNILLVLSCVLVLAGTVQGQKME | not soluble |
| MSLNIMDFNVKKLAADAGTFLSRAVQFTEEKLGQAEKTELDAHLENLLSKAECTKIWTEKIMKQTEVLLQPNPNARIEEFVYEKLDRKAPSRINNPELLGQYMIDAGTEFGPGTAYGNALIKCGETQKRIGTADRELIQTSALNFLTPLRNFIEGDYKTIAKERKLLQNKRLDLDAAKTRLKKAKAAETKSSSEQELRITQSEFDRQAEITRLLLEGISSTHAHHLRCLNDFVEAQMTYYAQCYQYMLDLQKQLGSFPSNYLSNNNQTSGTPVPYALSNAIGPSAQASTGSLVITCPSNLNDLKESSNNRKARVLYDYDAANSTELSLLADEVITVFSVVGMDSDWLMGERGNQKGKVPITYLELLNEGHHHHHH | soluble |
| MGSDKIHHHHHHMSDRLDEVDKRILYNLVRDARNTSAPDIADEVNVSAGTIRNRITHLEAAGIIRGYHAVVSYPQVGGRLTNLYICTSPVPDRDRLSKQVAEIPGVVSVRQLMKGRSNLHVTAVGDDMQELTRIANDLSAIGLDIEEENLLQSEEIRPYHEFGPDDSQDGHTIADFMELSGGAEVVELSVAADAEIAGHTLREANERGVIESDVLVVSIERDDEMLTPRGDTRVRPDDLVTVFCRGGISQETLSVFGKRGSATET | not soluble |
| GELPEKSKLQEIYQELTRLKAAVGELPEKSKLQEIYQELTRLKAAVGELPEKSKLQEIYQELTRLKAAVGELPEKSKLQEIYQELTRLKAAVGELPEKSKLQEIYQELTELKAAVGELPEKSKLQEIYQELTQLKAAVGELPDQSKQQQIYQELTDLKTAFERLGHH | soluble |
| AHHHHHHGSKRVWLVIPDTNFLFIPGQFGVDIISELERILDVNYKIVIPNIVLEELKTILREGKLRGKDLIAARMALKLAERFPTIYVGDFMSKTTDELIYEFAISNDNVIVCTNDKQLRKRLREAGVPVVFLRQKKKLELEGMLG | soluble |
| YTIEELVKQADQQFNGNIAELMIATEVEMSGRNREDIIKIMSRNLQVMKAAVTEGLTSTKSISGLTGGDAVKMDNYIKKGNSLSDTTILNAVRNAIAVNELNAKMGLVCATPTAGSAGCLPAVLATAIEKLDLSEKEQLEFLFTAGAFGLVIGNNASISGAEGGCQAE | not soluble |
| MSLSRVFVIGAAGKVGQRLIKKLGDGGHEVIALHRKEEQSVLIKAAGALPLLANLVEMDAAALSSAMAGSDVVVFTAGAGGAGIELTNAIDGEGLKTSVAAAELAGVRRFLLVSAFPEAARGTDTSAGFENYMRVKKHADVCLASSELDWVILRPGTLVDSAGSGQVRAGLAIPYGDIPRDDVAAFLAALVDQPEISRQIIELTEGTTPVELAIKALGTREGHHHHHH | soluble |
| MGSDKIHHHHHHMGVYHRIRVSRQTTTLPNIILTKKMIAAKDKAPQLTPQEYFIWEEQQLEKHEYINGEVYAMTGGSVNHGRIAIRFTAMFDSHLQNTGCITGNSDIKVNIFGSNNYTYPDASVTCDVRDQTTTQYITYPCLIVEVLSKTTEAYDRGGKFRMYRQNPALIDYLLVSSTSVEIDLYHKNDAGDWLIINYKPGDTIELKSINLNFPIEKVYRGLTLEPENGG | not soluble |
| MRTQFINEQTMMIYFENEISESTFKKVQQTIQYIKSKNLSEITNMIPSYRAILIYFDNSGINGTELLENLELDENSNSRKQSHFKQRIIHIPVLYGGDFGPDLSEVANVNKLSQEEVIQIHTQQPYLIYMLGFMPGFPYLGGLDAKLHTPRRSEPRIKINAGSVGIANNQTGLYPMDSPGGWQIIGRTPIKVFDLNRTPMTLYEAGDYIQFYSINYQEFEKISNDINKGKFDIDKWVTYQDEYLEHHHHHH | not soluble |
| MNPIIDGIIALEGGYVFNPKDKGGATHWGITEATARAHGYAGDMRDLTHAEAYAILEEDYWIKPGFDVISTLSWPVSFELCDAAVNIGAYHPSAWLQRWLNVFNHEGKRYPDIHVDGNIGPRTLAALEHYLAWRGQEGEAVLVKALNCSQGTYYLNVAEKNHNNEQFIYGWIKNRVT | soluble |
| MDRHTTEGWRRWAARLGAAAMALLLAACAAPRQQAASVDELPSWNDGPSRTAIVEFVRAVTRSGGPDFVAADERIAVFDNDGTLWSEQPMYFQMLFALDRVKSMAPRHPDWARRQPFKAALQDDHAALAKGGDVALMKIVGATHTDMSTDTFTRSVRYWASTARHPRFDRLYTELTFAPMRELLDYLRAHGFKTYIVSGGETEFMRSWTQQAYGIPPEQVIGSSFVTTYGVRDGEPTLWRHGKLEFNDDGPGKPVAIQRYIGRRPILAFGNSDGDLQMLQWTAAGDGKRFAGLVHHTDAQREWAYDRDSRIGRLDRALDEARRQDWTVVDMKTEWKRVYAFEQP | not soluble |
| MALNNFLTFQLLLLLLRVSSESPWIVAGDVSRIPINFLELAKSPEVFDSMVRIRRKIHENPELGYEEFETSKFIRSELDLIGVKYRFPVAITGIIGYIGTGEPPFVALRADMDALPIQEAVEWEHKSKNPGKMHACGHDGHVAMLLGAAKILQQHRQHLQGTVVLIFQPAEEGLSGAKMMREEGALKNVEAIFGIHLSPRTPFGKAASLAGSFMAGAGAFEAVITGKGGHAAIPQHTIDPVVAASSIVLSLQHLVSRETDPSDSKVVTVTKVNGGNAFNVIPDSITIGGTLRAFTGFTQLQERIKEIITKQAAVHRCNASVNLAPNGNQPMPPTVNNMDLYKKFKKVVRDLLGQEAFVEAVPEMGSEDFSYFAETIPGHFSLLGMQDETQGYASSHSPHYRINEDVLPYGAAIHATMAVQYLKDKASKGSVSGFHDEL | soluble |
| MSLTDVMFKSQIANQLKNLRKSRGLSLDATAQLTGVSKAMLGQIERGESSPTIATLWKIASGLEASFSAFFANDPQLLSSERSFPDDLNMKIHTLFPYAADTGLEIFEITLLDHHQQMSSPHALGVIEYIHVLEGIMKVFFDEQWHELQQGEHIRFFSDQPHGYAAVTEKAVFQNIVAYPRREGGSHHHHHH | soluble |
| MSLKWIDSHIHVDQYKDEEKSRLLKDVENSKEIQGLIAVSMNYQSSKEILSLAKRYSFVHPAVGFHPEQPIHKEECEKIYKLIEDHVEDIVAIGEVGLPYYLRKEDEHIAINSYISVLQRFVELASKYDLPIVLHAVYEDADVVCDLLEKHKVSRAHFHWFKGSETTMERMMRNGYYISITPDVLHKEKIRKIVSYYPLEYMMVETDGPWGFQEGVMTHPGMIREVLKEISVIKNVAVDKVAETIYENTIQFYLKGEGHHHHHH | soluble |
| SASKIKGRPPKQPKVTPALPSNDSQQLHENNPGNNLALETCGESSSSHGTGGPKPGPSKKTLNERKRKYGVSVNKTVQNIEWNVDHFLKVQHERRQELYKDYSHQFLTLVMMWNIDVDQIKKQAGKLSDILDEQQKLFQQFQSIHMQKIEEFKELCDRHLKNLQAIKCCRRKAIIEEARKLMDYLEKRVTEETVHVNKQEAKDGVQSSLLSLLIS | soluble |
| MYPNISDCGVIGDTRTAALVNSNGSIDYCSLPYFDSPTVFAALLDERKGGYFSLKPAEAFSSRREYLPDTCILCTSFTTRNGKAALYDFMPHQDDKTRERTQGIHRCIRVDEGRVKFTLTLKLLTFQQTGAIVAAATTSLPESIGGKRNWDYRFTWIRNASFTLKAFFALSHTSEADTFIRWLHDTYRKNGSRGFSQKLNAFVQRFDTEILDASLLIMPLVDFLPVTDQRIQGTIEACQTHLMDNGFIRRYRADDGLEEDEGGFLLCNFWMIECLALSGKSAEAEKLLGITMAAANDLGLFSEEYDPYSREMLGNFPQAFSHIGYINAAATLIDSKLPLANPLEHHHHHH | not soluble |
| GSQSSERVVIGSKPFNEQYILANMIAILLEENGYKAEVKEGLGGTLVNYEALKRNDIQLYVEYTGTAYNVILRKQPPELWDQQYIFDEVKKGLLEADGVVVAAKLGFRDDYALAVRADWAEENGVEKISDLAEFADQLVFGSDPEFASRPDGLPQIKKVYGFEFKEVKQMEPTLMYEAIKNKQVDVIPAYTTDSRVDLFNLKILEDDKGALPPYDAIIIVNGNTAKDEKLISVLKLLEDRIDTDTMRALNYQYDVEKKDAREIAMSFLKEQGLVK | soluble |
